This assay deals with recombinant Motavizumab human IgE (rMota-hIgE) (human) (UniProt P01854). As to the kind of experiment: hIgE binding ELISA.

For 15 molecules, Ratio OD450 pH 7.4/pH 6 results are on record in patent US20220177604A1.

Chain of recombinant Motavizumab human IgE (rMota-hIgE) (human) (P01854 other isoform, or with tags, fused parts or gaps limits assumed, form in doubt): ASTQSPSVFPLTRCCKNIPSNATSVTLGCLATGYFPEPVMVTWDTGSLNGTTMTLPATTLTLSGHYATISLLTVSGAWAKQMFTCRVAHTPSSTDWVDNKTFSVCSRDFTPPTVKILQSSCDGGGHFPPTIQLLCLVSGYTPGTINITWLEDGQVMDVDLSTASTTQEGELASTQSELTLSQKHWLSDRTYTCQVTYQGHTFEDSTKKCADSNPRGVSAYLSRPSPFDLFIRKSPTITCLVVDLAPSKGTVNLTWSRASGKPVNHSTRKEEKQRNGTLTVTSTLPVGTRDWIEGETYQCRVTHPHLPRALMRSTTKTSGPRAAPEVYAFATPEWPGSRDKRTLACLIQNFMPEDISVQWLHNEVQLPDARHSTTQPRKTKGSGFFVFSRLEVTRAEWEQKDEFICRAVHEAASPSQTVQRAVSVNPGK

B1: CL-2C mAb 1 (antibody, V domains shown)
VH: QVQLVQSGAEVMKPGSSVKVSCKASGYTFSWYWLEWVRQAPGHGLEWMGEIDPGTFTTHYNEKFKARVTFTADTSTSTAYMELSSLRSEDTAVYYCARFSHFSGSHYDYFDYWGQGTLVTVSS
VL: EIVMTQSPATLSVSPGERATLSCRASQHIGTNIHWYQQKPGQAPRLLIYYASESISGIPARFSGSGSGTEFTLTISSLQSEDFAVYYCQQSWSHPTTFGGGTKVEIK
As for B1, the Ratio OD450 pH 7.4/pH 6 amounted to 6.94.

B2: CL-2C mAb 7 (antibody, V domains shown)
VH: QVQLVQSGAEVMKPGSSVKVSCKASGYTFSWYHLEWVRQAPGHGLEWMGEIDPGTFTTNYNEKFKARVTFTADTSTSTAYMELSSLRSEDTAVYYCARFSHFSGSNHDYFDYWGQGTLVTVSS
VL: EIVMTQSPATLSVSPGERATLSCRASQSIGTNIHWYQQKPGQAPRLLIYHASESISGIPARFSGSGSGTEFTLTISSLQSEDFAVYYCHQSDSWPTTFGGGTKVEIK
As for B2, the Ratio OD450 pH 7.4/pH 6 was 1.43.

B3: CL-2C mAb 14 (antibody, V domains shown)
VH: QVQLVQSGAEVMKPGSSVKVSCKASGYTFSWYHLEWVRQAPGHGLEWMGEIDPGTFTTNYNEKFKARVTFTADTSTSTAYMELSSLRSEDTAVYYCARFSHFSGHNYDYFDYWGQGTLVTVSS
VL: EIVMTQSPATLSVSPGERATLSCRASQSIGTNIHWYQQKPGQAPRLLIYHASESISGIPARFSGSGSGTEFTLTISSLQSEDFAVYYCQQSWSHPTTFGGGTKVEIK
As to B3, the Ratio OD450 pH 7.4/pH 6 worked out at 1.53.

B4: CL-2C mAb 9 (antibody, V domains shown)
VH: QVQLVQSGAEVMKPGSSVKVSCKASGYTFSWYHLEWVRQAPGHGLEWMGEIDPGTFTTNYNEKFKARVTFTADTSTSTAYMELSSLRSEDTAVYYCARFSHFSGHNYDYFDYWGQGTLVTVSS
VL: EIVMTQSPATLSVSPGERATLSCRASQSIGTNIHWYQQKPGQAPRLLIYHASESISGIPARFSGSGSGTEFTLTISSLQSEDFAVYYCHQSDSWPTTFGGGTKVEIK
As to B4, the Ratio OD450 pH 7.4/pH 6 is 1.45.

B5: CL-2C mAb 15 (antibody, V domains shown)
VH: QVQLVQSGAEVMKPGSSVKVSCKASGYTFSWYWLEWVRQAPGHGLEWMGEIDPGTFTTNYNEKFKARVTFTADTSTSTAYMELSSLRSEDTAVYYCARFSHFSGSNYDYFDYWGQGTLVTVSS
VL: EIVMTQSPATLSVSPGERATLSCRASQSIGTNIHWYQQKPGQAPRLLIYHASESISGIPARFSGSGSGTEFTLTISSLQSEDFAVYYCQQSWSHPTTFGGGTKVEIK
In the case of B5, the Ratio OD450 pH 7.4/pH 6 was 4.07.

B6: CL-2C mAb 10 (antibody, V domains shown)
VH: QVQLVQSGAEVMKPGSSVKVSCKASGYTFSWYWLEWVRQAPGHGLEWMGEIDPGTFTTNYNEKFKARVTFTADTSTSTAYMELSSLRSEDTAVYYCARFSHFSGSNYDYFDYWGQGTLVTVSS
VL: EIVMTQSPATLSVSPGERATLSCRASQSIGTNIHWYQQKPGQAPRLLIYHASESISGIPARFSGSGSGTEFTLTISSLQSEDFAVYYCHQSDSWPTTFGGGTKVEIK
Turning to B6, the Ratio OD450 pH 7.4/pH 6 turned out to be 2.77.

B7: CL-2C mAb 13 (antibody, V domains shown)
VH: QVQLVQSGAEVMKPGSSVKVSCKASGYTFSWYHLEWVRQAPGHGLEWMGEIDPGTFTTNYNEKFKARVTFTADTSTSTAYMELSSLRSEDTAVYYCARFSHFSGSHYDYFDYWGQGTLVTVSS
VL: EIVMTQSPATLSVSPGERATLSCRASQSIGTNIHWYQQKPGQAPRLLIYHASESISGIPARFSGSGSGTEFTLTISSLQSEDFAVYYCQQSWSHPTTFGGGTKVEIK
For B7, the Ratio OD450 pH 7.4/pH 6 was 1.28.

B8: CL-2C mAb 12 (antibody, V domains shown)
VH: QVQLVQSGAEVMKPGSSVKVSCKASGYTFSWYHLEWVRQAPGHGLEWMGEIDPGTFTTNYNEKFKARVTFTADTSTSTAYMELSSLRSEDTAVYYCARFSHFSGSNHDYFDYWGQGTLVTVSS
VL: EIVMTQSPATLSVSPGERATLSCRASQSIGTNIHWYQQKPGQAPRLLIYHASESISGIPARFSGSGSGTEFTLTISSLQSEDFAVYYCQQSWSHPTTFGGGTKVEIK
As to B8, the Ratio OD450 pH 7.4/pH 6 was determined as 1.54.

B9: CL-2C mAb 3 (antibody, V domains shown)
VH: QVQLVQSGAEVMKPGSSVKVSCKASGYTFSWYHLEWVRQAPGHGLEWMGEIDPGTFTTNYNEKFKARVTFTADTSTSTAYMELSSLRSEDTAVYYCARFSHFSGSHYDYFDYWGQGTLVTVSS
VL: EIVMTQSPATLSVSPGERATLSCRASQHIGTNIHWYQQKPGQAPRLLIYYASESISGIPARFSGSGSGTEFTLTISSLQSEDFAVYYCQQSWSHPTTFGGGTKVEIK
In the case of B9, the Ratio OD450 pH 7.4/pH 6 is 6.44.

B10: CL-2C mAb 4 (antibody, V domains shown)
VH: QVQLVQSGAEVMKPGSSVKVSCKASGYTFSWYHLEWVRQAPGHGLEWMGEIDPGTFTTNYNEKFKARVTFTADTSTSTAYMELSSLRSEDTAVYYCARFSHFSGHNYDYFDYWGQGTLVTVSS
VL: EIVMTQSPATLSVSPGERATLSCRASQHIGTNIHWYQQKPGQAPRLLIYYASESISGIPARFSGSGSGTEFTLTISSLQSEDFAVYYCQQSWSHPTTFGGGTKVEIK
As to B10, the Ratio OD450 pH 7.4/pH 6 was determined as 5.26.

B11: CL-2C mAb 2 (antibody, V domains shown)
VH: QVQLVQSGAEVMKPGSSVKVSCKASGYTFSWYHLEWVRQAPGHGLEWMGEIDPGTFTTNYNEKFKARVTFTADTSTSTAYMELSSLRSEDTAVYYCARFSHFSGSNHDYFDYWGQGTLVTVSS
VL: EIVMTQSPATLSVSPGERATLSCRASQHIGTNIHWYQQKPGQAPRLLIYYASESISGIPARFSGSGSGTEFTLTISSLQSEDFAVYYCQQSWSHPTTFGGGTKVEIK
Turning to B11, the Ratio OD450 pH 7.4/pH 6 amounted to 7.11.

B12: CL-2C mAb 11 (antibody, V domains shown)
VH: QVQLVQSGAEVMKPGSSVKVSCKASGYTFSWYWLEWVRQAPGHGLEWMGEIDPGTFTTHYNEKFKARVTFTADTSTSTAYMELSSLRSEDTAVYYCARFSHFSGSHYDYFDYWGQGTLVTVSS
VL: EIVMTQSPATLSVSPGERATLSCRASQSIGTNIHWYQQKPGQAPRLLIYHASESISGIPARFSGSGSGTEFTLTISSLQSEDFAVYYCQQSWSHPTTFGGGTKVEIK
Take B12: the Ratio OD450 pH 7.4/pH 6 was determined as 5.9.

B13: CL-2C mAb 6 (antibody, V domains shown)
VH: QVQLVQSGAEVMKPGSSVKVSCKASGYTFSWYWLEWVRQAPGHGLEWMGEIDPGTFTTHYNEKFKARVTFTADTSTSTAYMELSSLRSEDTAVYYCARFSHFSGSHYDYFDYWGQGTLVTVSS
VL: EIVMTQSPATLSVSPGERATLSCRASQSIGTNIHWYQQKPGQAPRLLIYHASESISGIPARFSGSGSGTEFTLTISSLQSEDFAVYYCHQSDSWPTTFGGGTKVEIK
Take B13: the Ratio OD450 pH 7.4/pH 6 amounted to 10.2.

B14: CL-2C mAb 5 (antibody, V domains shown)
VH: QVQLVQSGAEVMKPGSSVKVSCKASGYTFSWYWLEWVRQAPGHGLEWMGEIDPGTFTTNYNEKFKARVTFTADTSTSTAYMELSSLRSEDTAVYYCARFSHFSGSNYDYFDYWGQGTLVTVSS
VL: EIVMTQSPATLSVSPGERATLSCRASQHIGTNIHWYQQKPGQAPRLLIYYASESISGIPARFSGSGSGTEFTLTISSLQSEDFAVYYCQQSWSHPTTFGGGTKVEIK
For B14, the Ratio OD450 pH 7.4/pH 6 turned out to be 0.73.

B15: CL-2C mAb 8 (antibody, V domains shown)
VH: QVQLVQSGAEVMKPGSSVKVSCKASGYTFSWYHLEWVRQAPGHGLEWMGEIDPGTFTTNYNEKFKARVTFTADTSTSTAYMELSSLRSEDTAVYYCARFSHFSGSHYDYFDYWGQGTLVTVSS
VL: EIVMTQSPATLSVSPGERATLSCRASQSIGTNIHWYQQKPGQAPRLLIYHASESISGIPARFSGSGSGTEFTLTISSLQSEDFAVYYCHQSDSWPTTFGGGTKVEIK
Take B15: the Ratio OD450 pH 7.4/pH 6 turned out to be 1.12.
